Molecular target: T1, human Gαi subunit (Gαi1) with N-terminal deca-histidine tag (human, UniProt P63096 1-354)
T1 construct: Gαi1 subunit, human; TEV protease-cleavable tag; source: E. coli BL21 (DE3), purified; not shown: His10, N-terminal, kept
Assay: cryo-EM structure; rhodopsin-Gi-Fab16 complex; rhodopsin on 1D4 resin mixed with 10xHis-tagged Gi, light-activated, with apyrase, in LMNG; Ni-NTA; Fab16 added in molar excess (1:1.4); SEC in 20 mM HEPES pH 7.5, 150 mM NaCl; Titan Krios, K2; nominal resolution 4.38 Å
Conditions: both partners purified

B1: bovine rhodopsin N2C/M257Y/D282C (stabilized, constitutively active mutant) (receptor, UniProt P02699 1-348, looked up)
chain: MCGTEGPNFYVPFSNKTGVVRSPFEAPQYYLAEPWQFSMLAAYMFLLIMLGFPINFLTLYVTVQHKKLRTPLNYILLNLAVADLFMVFGGFTTTLYTSLHGYFVFGPTGCNLEGFFATLGGEIALWSLVVLAIERYVVVCKPMSNFRFGENHAIMGVAFTWVMALACAAPPLVGWSRYIPEGMQCSCGIDYYTPHEETNNESFVIYMFVVHFIIPLIVIFFCYGQLVFTVKEAAAQQQESATTQKAEKEVTRMVIIYVIAFLICWLPYAGVAFYIFTHQGSCFGPIFMTIPAFFAKTSAVYNPVIYIMMNKQFRNCMVTTLCCGKNPLGDDEASTTVSKTETSQVAPA
modifications: palmitoylation of Cys residues at positions 322 and 323; reconstituted with 9-cis or 11-cis retinal and light-activated
notes: rhodopsin, bovine, mutant N2C/M257Y/D282C; Residues 324-335 of the C-tail were modelled in the map; also called the receptor
B1: binds.
